Data as given in the nanobody polyreactivity screen of Harvey et al. (2022).

Test: yeast display, Sf9 membrane polyspecificity reagent, FACS + sequencing; frameworks hold sequencing errors
How it was run: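 Nanobodies came from a synthetic yeast display library in Saccharomyces cerevisiae BJ5465, induced with galactose for 36–48 hours and stained for 1 hour at 4 °C with 10% biotinylated, detergent-solubilized Sf9 membrane reagent. Cells were enriched on streptavidin microbeads and then FACS-sorted, with low and high (top ~1%) gates set on anti-HA fluorescence for expression and streptavidin fluorescence for reagent binding. Each polyreactivity label reflects the gate a clone came from. Genes were amplified by colony PCR, sequenced by MiSeq 2 × 250 and filtered by CDR length.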
For “QVQLVESGGGLVQAGVSLRLSCAASGSTFSNYAMGWYRQAPGKERELVAGIDWSGGSTYYADSVKGRFTISRDNEKITVYLQMNSLKPEDTAVYYCAKRVWYHGRKLRGYYWGQGTQVTVSS”, the “polyreactivity (PSR sort gate)” value was “low polyreactivity”.
With “QVQLVESGGGLVQAGVSLRLSCAASGSTFYYYAMGWYRQAPGKERELVATISSGSSTNYADSVKGRFTISRDNAKNTVYLQMNSLKPEDTAVYYCAADRWYITLSIDATISYDYWGQGTQVTVSS” the “polyreactivity (PSR sort gate)” value was “low polyreactivity”.
In the case of “QVQLVESGGGLVQAGVSLRLSCAASGSTLISNTMGWNRQAPWKERELVAAITRTGGRTYYADSVKGRFTSSRDTAKNTVDLPMNSLKPEDTAVYYCARYGGYLSLKYDYWGQGTQVTVAS”, the “polyreactivity (PSR sort gate)” value is reported as “high polyreactivity”.
With “QVQLVESGGGLVQAGVSLRLSCAASGVNAMGWYRQAPGKEREFVAAITSIGGSTYYADSVKGRFTISRDNAKNTVYLQMNSLKPEDTAVYYCNTDRGPVKVSPLYESWGQGTQVTVSS” the “polyreactivity (PSR sort gate)” value was “low polyreactivity”.
In the case of “QVQLVESGGGLVQAGVSLRLSCHASGSIFYYNTMGWYRQSPGKERELVATISSDGGTNYADSVKGRFTISRDNAKYTVYLQMNSLKPEDTAVYYCAKDGSNRLALPAWDYNYWGQGTQVTVSS”, the “polyreactivity (PSR sort gate)” value is reported as “low polyreactivity”.
For “QVQLVESGGGLVQARGSLLLSSAASGLIFQTYTMGWYRQAPGKERELVAAITSSGGRTYYADSVKGRFTISRDNAKNSVFLQKNSLKPEDTAVYYCAARRPPSAGMGYWGQGTQVTVSS”, the “polyreactivity (PSR sort gate)” value was “high polyreactivity”.
With “QVQLVESGGGLVQARGSLRLSCAASGFIFASNAMGWYRQAPGKERELVAAITKSGGRTYYADSVKARFTISRDTAKNTVYLQMNSLKPVDTAVYYCAAKVRVVHRPYDHWGQGTQVTVSS” the “polyreactivity (PSR sort gate)” value was “high polyreactivity”.
For “QVQLVESGGGLVQARGSLRLSCAASGFTFGYNAMGWYRKAPGTERELVAVITQSGGRTYYADSVKGRFTISRDNANNSVYLQMNSLKPEDTAVYYCAARYRLAPYYYWGQGTQVTVSS”, the “polyreactivity (PSR sort gate)” value was “high polyreactivity”.
With “QVQLVESGGGLVQARGSLRLSCAASGLTFRIYAMGWYRQAPGKERELVAAITRGGSTYADSVKGRFTISRDNAKNTVYLQMNSLKPEDTAVYYCAARVRSTSQVSASPVWYYYWGLGTQVTVSS” the “polyreactivity (PSR sort gate)” value was “high polyreactivity”.
In the case of “QVQLVESGGGLVQARGSLRLSCAASGNTFPSYAMGWYRQAHGKERELVAAITSGGRTYYADSVNGRFTISRDNAKNTVYLQLNSLKPEDTAVYYCAAEWVVRYPWYRYYYWGQGTEVTVSS”, the “polyreactivity (PSR sort gate)” value is reported as “high polyreactivity”.
With “QVQLVESGGGLVQARGSLRLSCAASGRIFKYNAMGWYRQAPGKESELVAAISGGGSTNYADSVKGRFTISRDNAKNTVYLLMNSLKPEDTAVYYCAKGYRRVYGPFYYWGQGTQVTVSS” the “polyreactivity (PSR sort gate)” value was “low polyreactivity”.
In the case of “QVQLVESGGGLVQARGSLRLSCAASGRIFPGYAMGWYRQAPGKERELVAGISNDASTNYADSVKGRFTISRDNAKNTVYLQMNSLKPEDTAVYYCAAEISSLSFPRYDYWGQGTQVTVSS”, the “polyreactivity (PSR sort gate)” value is reported as “low polyreactivity”.
With “QVQLVESGGGLVQARGSLRLSCAASGRIFVINAMGWYRQAPGKERELVAAISQSGGSTYYADSVKGRFTISRDNAKNTVYLQMNSLKPEDTAVYYCNALSNVPYDYWGQGTLVTVSS” the “polyreactivity (PSR sort gate)” value was “low polyreactivity”.
In the case of “QVQLVESGGGLVQARGSLRLSCAASGRIFYFYAMGWYRQAPGKERELVAAITESTSSTYYADSVKGRFTISRDNAKNTVYLQMNSLKPEDTAVYYCAARVSQWLPYGGSSRYYYWGQGTQVTVSS”, the “polyreactivity (PSR sort gate)” value is reported as “high polyreactivity”.
For “QVQLVESGGGLVQARGSLRLSCAASGRTFGGYARGWYRQAPGKERELVATISKRAGSTYYADSVKGRFTISRDHAKNTVYLQMNSLKPEDTAVYYCAKVKSARYQEYEYWGQGTQVTVSS”, the “polyreactivity (PSR sort gate)” value was “high polyreactivity”.
With “QVQLVESGGGLVQARGSLRLSCAASGSIFDDYAMGWYRQAPGKERELVAAISSSGTSTYYADSVKGRFTISRDNAKNTVYLQLNSLKPEDTAVYYCAARSAILKSGYLMEYWGEGTQVTVSS” the “polyreactivity (PSR sort gate)” value was “low polyreactivity”.
In the case of “QVQLVESGGGLVQARGSLRLSCAASGSIFQYNAMGWYRQAPGKERELVAAINGGGSTYYADSVKGRFTISRNNAKNTVYLQLTSLNPEDTAVYYCNADAMDEDWRGYWGQGTQVTVSS”, the “polyreactivity (PSR sort gate)” value is reported as “low polyreactivity”.
For “QVQLVESGGGLVQARGSLRLSCAASGSIFYGNAMGWYRQAHGKERELVAAISQSGGSTYYADSVKGRFTISRDNAKNTVYLQMNSLKPEDTAVYYCAAYTPYATWRYDYWGQGTQVTVSS”, the “polyreactivity (PSR sort gate)” value was “low polyreactivity”.
In the case of “QVQLVESGGGLVQARGSLRLSCAASGSTFGGYAMGWYRKAPGKERELVASISAIGGSTYYADSVKGRFTISRDNAKNTFYLQMNSMKPEDTAVYYCAAQRGGGPNDYWGQGTQVTVSS”, the “polyreactivity (PSR sort gate)” value is reported as “high polyreactivity”.
In the case of “QVQLVESGGGLVQARGSLRLSCAASGSTFGWYAMGWYREAPGKERELVAAIYRGGGSTYYADSVKVRFTISRDNAMNTVYLQMNSLKPEDTAVYYCAAYSYYQGGMDYWGEGTQVTVSS”, the “polyreactivity (PSR sort gate)” value is reported as “high polyreactivity”.
With “QVQLVESGGGLVQARGSLRLSCAASGSTFVGYAMGWYRQAPGKEREFVAAITRGGSTNYADSVKGRFTISRDNAKNTVYLQMNSLKPEDTAVYYCAARDRREGFNFDYWGQGTQVTVSS” the “polyreactivity (PSR sort gate)” value was “low polyreactivity”.
For “QVQLVESGGGLVQARGSLRLSCAASGSTLRRYAMGWYRQAPGKERELVAAISGSGDSTYYADSVKGRFTISRDNAKNTVYLQMNSLKPEDTAVYYCNAVYAFNGYDYWGQGSQVTVSS”, the “polyreactivity (PSR sort gate)” value was “low polyreactivity”.
In the case of “QVQLVESGGGLVQARGSLRLSCAASGYIFAVYAMGWYRQANGKERELVAAITWSGGRTYYADSVKGRFTISLDNAKNTVYLQMNSLKPEDTAVYYCNARARSRKFYYWGQGTQVTVSS”, the “polyreactivity (PSR sort gate)” value is reported as “high polyreactivity”.
With “QVQLVESGGGLVQARGSLRLSCAASVIIFRLYGRGWYRQAPGKEREFVATITWRGGRTNYADSVKGRFTISRDNAKNTVYLQMNSLKPEDTAVYYCAKVVRYARSNEYDSWGQGTQVTVSS” the “polyreactivity (PSR sort gate)” value was “low polyreactivity”.
In the case of “QVQLVESGGGLVQARGSLRLSCAAYGLTLRGYAMGWYRQAPGKERELVAAISGSGTSTYYADSVKWRFTISRDNAKNTVYLQMNSLKPEDTAVYYCAAVKVRKGLEMGYWGQGTQVTVSS”, the “polyreactivity (PSR sort gate)” value is reported as “high polyreactivity”.
In the case of “QVQLVESGGGLVQARGSLRLSCAGSGRTFGYYAMGWYRHAPGKERELVAAIDQSDTYYADSVKGRFTISRDNAKITVSLQMNSLKPEDTAVYYCAADGDPSIEDEYWGQGTQVTVSS”, the “polyreactivity (PSR sort gate)” value is reported as “high polyreactivity”.
For “QVQLVESGGGLVQARGSLRLSSAAYGRTLYSYAMGWYRQAPGKERELVATIRRSGGSTNYADSVKGRFTISRDNAKNTVYLQMNSLKPEDTAVYYCAAVSFKPEYYYWGQGTQVTVSS”, the “polyreactivity (PSR sort gate)” value was “high polyreactivity”.
In the case of “QVQLVESGGGLVQARGSLRLSSSASGSIFKYYAMGRYRHAPGKESELGAAISYSGGTTYYADSVKGRFTISRDNAKNTVYLQMNSLKPEDTAVYDCNARYPNFVVRGYAPYDYWGQGSQVTVSS”, the “polyreactivity (PSR sort gate)” value is reported as “low polyreactivity”.
With “QVQLVESGGGLVQARGSLRLTCAASGNIFVSYAMGWYRPAPGKERELVAAISKRGGSTYYADSVKGRFTISRDNAKNTVDLQMISLKPEDTAVYYCAALGHVDDSIYDYWGQGTQVTVSS” the “polyreactivity (PSR sort gate)” value was “high polyreactivity”.
For “QVQLVESGGGLVQARGSLRLTWAASGRTFGINAMGWYRQAPGKERELVAVISGSGGNTYYADSVKGRFTISRDNAKNTVYLQMNSLKPEDTAVYYFATSYEKFRYDHGYWGQGTQVTVSS”, the “polyreactivity (PSR sort gate)” value was “low polyreactivity”.
With “QVQLVESGGGLVQARGSRRLSCAASGLTFVPTAMGWYRQAPGKEREFVAAISNNGGRKYYADSVKGRFTISRDNAKNRVYLQINSLKPDDTAVYYCAKYLSPGERHSYDYWGQGTQVTVSS” the “polyreactivity (PSR sort gate)” value was “high polyreactivity”.
In the case of “QVQLVESGGGLVQARVSLRLSCAASGRIYGYTMGWYRQAPGKERELVAAITRNGGSTYYADSVKARFTISRDNSKNTVSLQMNSLKPEDNAVYYCAARNAFGTYYAWGQGTQVTVAS”, the “polyreactivity (PSR sort gate)” value is reported as “high polyreactivity”.
With “QVQLVESGGGLVQARVSLRLSCAASGSIFNGYAMRWYRQAPGKESEFVAAISASGGGTYYADSVKGRFTISRDNAKNTVYLQMNSLKPEDTAVYYCNARYHPYYWGYRYDYWGQGTQVTVSS” the “polyreactivity (PSR sort gate)” value was “low polyreactivity”.
For “QVQLVESGGGLVQAVGILRLSCASYGRTFVANAMGWYIQAPGKERELVAGITCGDSTYYADSVKWRFTISRDNAKNTVYLQMNRLKPEDTAVYYCSAPYNFWNFFDLIYVWDGYDYWGQGTQVTVSS”, the “polyreactivity (PSR sort gate)” value was “low polyreactivity”.
For “QVQLVESGGGLVQAVGRLRLSCAASGFTFPWYAMGWYRHAPGKERELVAAISTSGDSTYYADSVKGRFTISRDNAKNTVYLQMNSLKPADTAVYYCAARVVRGRYGYWGQGTQVTVSS”, the “polyreactivity (PSR sort gate)” value was “high polyreactivity”.
With “QVQLVESGGGLVQAVGRLRLSCAASGRILPLYAMGWYRQAPGKEREMVADITGSDGSTYYADSVKGRFSISRDNAKNTVYLQMNSLKPEDTAVYYCATDAIGRTPSDPWDYYYWGQGTQVTVSS” the “polyreactivity (PSR sort gate)” value was “low polyreactivity”.
For “QVQLVESGGGLVQAVGSLRLSCAACGRILWYYTMGWYRQAPAKERELVAAISGRGSSTYYADSVKGRFTISRDNAKNTVYLQMNSLKPEDTAVYYCNAALRTRRGDYDYWGQGTQVTVSS”, the “polyreactivity (PSR sort gate)” value was “high polyreactivity”.
With “QVQLVESGGGLVQAVGSLRLSCAASGFTFGRYAMGWYIQAPAKEREFVASISARGGNTFYADSVKGRFTISRDNAKNTVYLQMNSLKPEDTAVYYCNAYYLAEYDYWGQGTQVTVSS” the “polyreactivity (PSR sort gate)” value was “high polyreactivity”.
For “QVQLVESGGGLVQAVGSLRLSCAASGLTFYIYVMGCYRQAPGKERELVAAISGSGGSTYYADSVKGRFTISRDNAKNTVYLHLNSLKLEDTALYYCNAEDWWRYLRGEDDYWGQGTQVTVSS”, the “polyreactivity (PSR sort gate)” value was “high polyreactivity”.
In the case of “QVQLVESGGGLVQAVGSLRLSCAASGRIFPYYAMGWYSQAPGKERELVAVFTIGGNSYYADSVKGRFTMSRDNAKNTVYLQMNSLKPEDTAVYYCAASAYSYYRFDYWGQGTQVTVSS”, the “polyreactivity (PSR sort gate)” value is reported as “low polyreactivity”.
With “QVQLVESGGGLVQAVGSLRLSCAASGRTFNLYAMGWYRQAPGKERELVAAITRRGGRTYYADSVKGRFTISRDNAKNTVYLQMNSLKPEDTAVYYCAARGYYGKFSGSGYWGQGTQVTVSS” the “polyreactivity (PSR sort gate)” value was “high polyreactivity”.
With “QVQLVESGGGLVQAVGSLRLSCAASGSILVTYMGWYRPAPGKEREVVAAISYTGGSTYYADSVKGRFTISRDNAKNSVYLQMNSLKPEDTEVFYCASFYLASETYYYFYWPKDSDDYCGQGTQVTVSS” the “polyreactivity (PSR sort gate)” value was “low polyreactivity”.
For “QVQLVESGGGLVQAVGSLRLSCAASGSTFHWYDMGWYRQAPGKERELVPGINSSGDGTYYADSVKGRFTISRDNAKNTVYLQMNSLKPEDTAVYDCAAPWWYYGVPYQTNKYDYWGQGTQVTLSS”, the “polyreactivity (PSR sort gate)” value was “low polyreactivity”.
